# Measurements taken from US20100150860A1 (LUNAN PHARMACEUTICAL GROUP, published 2010).
# B1: TNHH-G15/n3, NIF-(Gly)15-FPRP-(GSGG)3-hirugen (other)
# chain: MNEHNLRCPQNGTEMPGFNDSIRLQFLAMHNGYRSKLALGHISITEESESDDDDDFGFLPDFAPRASKMRYLEYDCEAEKSAYMSARNCSDSSSPPEGYDENKYIFENSNNISEAALKAMISWAKEAFNLNKTKEGEGVLYRSNHDISNFANLAWDAREKFGCAVVNCPLGEIDDETNHDGETYATTIHVVCHYPKINKTEGQPIYKVGTPCDDCSEYTKKADNTTSADPVCIPDDGVCFIGSKADYDSKEFYRFRELGGGGGGGGGGGGGGGFPRPGSGGGSGGGSGGNGDFEEIPEEYL
# B2: NIF-hirudin hybrid (NHH), NIF-(Gly)5-hirugen (other)
# chain: NEHNLRCPQNGTEMPGFNDSIRLQFLAMHNGYRSKLALGHISITEESESDDDDDFGFLPDFAPRASKMRYLEYDCEAEKSAYMSARNCSDSSSPPEGYDENKYIFENSNNISEAALKAMISWAKEAFNLNKTKEGEGVLYRSNHDISNFANLAWDAREKFGCAVVNCPLGEIDDETNHDGETYATTIHVVCHYPKINKTEGQPIYKVGTPCDDCSEYTKKADNTTSADPVCIPDDGVCFIGSKADYDSKEFYRFRELGGGGGNGDFEEIPEEYL
# B3: recombinant chimeric protein of neutrophil inhibitory factor and hirugen (TNHH), Met-NIF-GGGGG-FPRPGSGG-Hirugen (other)
# chain: MNEHNLRCPQNGTEMPGFNDSIRLQFLAMHNGYRSKLALGHISITEESESDDDDDFGFLPDFAPRASKMRYLEYDCEAEKSAYMSARNCSDSSSPPEGYDENKYIFENSNNISEAALKAMISWAKEAFNLNKTKEGEGVLYRSNHDISNFANLAWDAREKFGCAVVNCPLGEIDDETNHDGETYATTIHVVCHYPKINKTEGQPIYKVGTPCDDCSEYTKKADNTTSADPVCIPDDGVCFIGSKADYDSKEFYRFRELGGGGGFPRPGSGGNGDFEEIPEEYL
# Molecular target: thrombin (of the antithrombin activity assay, species not stated)
# Assay: cell-based or functional assay
row,Binder,antithrombin activity (ATU/mg)
1,B1,1200 ATU/mg
2,B2,800 ATU/mg
3,NGDFEEIPEEYL (not fully specified) [hirugen (printed 'Hirogen')],1000 ATU/mg
4,B3,1200 ATU/mg
